In paper PMC2441792:

Columns and labels:
[1] = biological target: δ2K36A (Walker A mutant of protein δ) (Streptococcus pyogenes (plasmid pSM19035)); test: SEC + cross-linking
[2] = biological target: protein δ (ParA-Ib type Walker-box ATPase) of plasmid pSM19035, wild type (Streptococcus pyogenes (plasmid pSM19035)); test: SEC + cross-linking

Row | Substance | stoichiometry N [1] | stoichiometry N [2]
1 | δ2K36A (Walker A mutant of protein δ) (enzyme) | 2 | 
2 | protein δ (ParA-Ib type Walker-box ATPase) of plasmid pSM19035, wild type (enzyme) |  | 2
